Measurements taken from paper PMC6519459 (Science (New York, N.Y.), 2018).

Biological target: Rpn11 (deubiquitinase of the lid, 3XFLAG-tagged, in the 26S holoenzyme) (S. cerevisiae, UniProt P43588 1-306)
Experiment: cryo-EM structure

binding result: binds
B1: ubiquitin (S. cerevisiae), the proximal, substrate-attached moiety of the polyubiquitin chain (natural protein)
chain: not shown
modifications: C terminus joined to the substrate lysine by an isopeptide bond; part of a K63-linked chain
